The source of these data is patent US20180282422A1 (DINGFU BIOTARGET, published 2018).

Test [1] concerns the target T1, hGITR-EGFP on HEK293 cells (human, UniProt Q9Y5U5 26-241).
T1 construct: EGFP fusion on transfected HEK293 cells; not shown: enhanced green fluorescent protein (EGFP), UniProt C5MKY7
T1 sequence (looked up): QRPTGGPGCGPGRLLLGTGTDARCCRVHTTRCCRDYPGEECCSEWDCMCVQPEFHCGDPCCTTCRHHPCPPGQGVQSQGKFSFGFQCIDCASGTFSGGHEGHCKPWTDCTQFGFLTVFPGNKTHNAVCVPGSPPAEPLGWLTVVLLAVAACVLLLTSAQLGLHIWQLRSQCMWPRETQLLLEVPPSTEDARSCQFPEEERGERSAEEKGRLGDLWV
The experiment in a line: flow cytometry on transfected HEK293 cells, anti-hIg-PE. On the procedure:
(§1) HEK293 cells expressing hCD137-EGFP, hOX40-EGFP, hCD27-EGFP and hGITR-EGFP constructed in Example 1 were resuspended in 0.5% PBS-BSA Buffer and anti-hCD137 C2scFv and C14 scFv protein were added, the negative control was hIgG Fe protein, then the mixture was incubated on ice for 20 min. After washing, secondary antibody anti-hIg-PE (eBioscience) was added and was incubated on ice for 20 min. After washing, the cells were resuspended in 500 μL of 0.5% PBS-BSA Buffer and detected by flow cytometry.
(§2) HEK293 cells expressing hCD137-EGFP, hOX40-EGFP, hCD27-EGFP and hGITR-EGFP constructed in Example 1 were resuspended in 0.5% PBS-BSA Buffer and anti-hCD137 C14 mAb protein was added, the negative control was hIgG Fc protein, then the mixture was incubated on ice for 20 min. After washing, a secondary antibody anti-hlg-PE (eBioscience) was added and incubated on ice for 20 min. After washing, the cells were resuspended in 500 μL 0.5% PBS-BSA Buffer and detected by flow cytometry.

Test [2] concerns the target T2, hCD27-EGFP on HEK293 cells (human, UniProt P26842 20-260).
T2 construct: EGFP fusion on transfected HEK293 cells; not shown: enhanced green fluorescent protein (EGFP), UniProt C5MKY7
T2 sequence (looked up): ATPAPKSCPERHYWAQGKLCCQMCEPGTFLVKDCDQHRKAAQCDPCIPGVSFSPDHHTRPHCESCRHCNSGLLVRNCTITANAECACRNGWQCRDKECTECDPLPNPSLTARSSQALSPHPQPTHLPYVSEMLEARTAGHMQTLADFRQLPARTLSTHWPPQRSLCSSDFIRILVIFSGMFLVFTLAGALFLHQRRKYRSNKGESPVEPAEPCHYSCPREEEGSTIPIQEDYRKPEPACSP
The description is as above. On the procedure:
as §1, §2

The target of test [3] is T3, hOX40-EGFP on HEK293 cells (human, UniProt P43489 29-277).
T3 construct: EGFP fusion on transfected HEK293 cells; not shown: enhanced green fluorescent protein (EGFP), UniProt C5MKY7
T3 sequence (looked up): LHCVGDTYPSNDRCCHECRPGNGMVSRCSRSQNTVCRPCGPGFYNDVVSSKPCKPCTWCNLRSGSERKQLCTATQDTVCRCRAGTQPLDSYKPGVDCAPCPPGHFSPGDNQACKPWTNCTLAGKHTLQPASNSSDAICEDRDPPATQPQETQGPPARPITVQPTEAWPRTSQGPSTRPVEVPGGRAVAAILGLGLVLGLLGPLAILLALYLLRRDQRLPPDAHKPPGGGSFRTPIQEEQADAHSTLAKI
The test is described as above. On the procedure:
as §1, §2

In test [4] the target is T4, hCD137-muFc (human; mouse, UniProt Q07011 24-186).
T4 construct: range 1-186; It states no cleavage site; Made in HEK293 and purified on protein A; also called recombinant human CD137; not shown: mouse IgG1-Fc (muFc) domain, residues 98-324 of UniProt P01868
The experiment in a line: SPR, BIAcore X100; scFv captured by anti-hFc on a CM5 chip, CD137-muFc as analyte 1000-31.6 nM; 1:1 Langmuir model. The protocol: (§3) The binding kinetics of anti-hCD137 C2scFv and C14 scFv antibodies against the recombinant human CD137 were measured by surface plasmon resonance (SPR) process using a BIAcore X100 instrument. Anti-hFc antibody (not cross-identifying mouse Fc) was conjugated on CM5 chip, C2 scFv or C14 scFv was diluted to 5 nM with running buffer and captured as a ligand by the antibody on the chip. CD137-muFc was diluted with running buffer to 1000-31.6 nM, diluted twice to a total of 6 concentrations. The injection time was 180 s, the dissociation time was 1800 s and the regeneration time was 60 s. The running buffer was HBS-EP+, and the regeneration buffer was 10 mM glycine-HCl (pH 2.0). The association rate (Kₒₙ) and the dissociation rate (Koff) were calculated using a simple one-to-one Languir binding model (BIAcore Evaluation Software version 3.2). The equilibrium dissociation constant (KD) was calculated as the ratio of Koff/Kₒₙ.

The target of test [5] is T5, RhCD137-muFc (rhesus monkey; mouse).
T5 construct: Residues 1-186 as stated; no signal peptide cleavage site is stated; also called Rhesus monkey CD137; CD137 of rhesus monkey
T5 chain: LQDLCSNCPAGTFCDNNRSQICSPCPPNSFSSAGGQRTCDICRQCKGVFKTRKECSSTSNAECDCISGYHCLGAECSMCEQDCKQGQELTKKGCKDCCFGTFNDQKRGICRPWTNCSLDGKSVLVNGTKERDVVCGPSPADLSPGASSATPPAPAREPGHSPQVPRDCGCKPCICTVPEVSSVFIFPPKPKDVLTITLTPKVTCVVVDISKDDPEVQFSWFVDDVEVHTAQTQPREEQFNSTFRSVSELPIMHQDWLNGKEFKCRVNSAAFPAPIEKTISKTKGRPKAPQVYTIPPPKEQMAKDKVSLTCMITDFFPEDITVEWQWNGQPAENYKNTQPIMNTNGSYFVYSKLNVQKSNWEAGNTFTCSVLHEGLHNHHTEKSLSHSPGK
The experiment in a line: ELISA, RhCD137-muFc coated at 5 ug/mL, antibody titrated 3-fold, goat anti-hIgG-HRP, OD450-650. The protocol: RhCD137-muFc was diluted to 5 μg/mL 100 μL/well, with coating buffer (50 mM Na₂CO₃, NaHCO₃ pH 9.6), overnight at 4° C. After washing, the plates were blocked with 3% BSA-PBS for 1 h at 37° C. Anti-hCD137 14#mAbnew antibodies were respectively diluted from 2000 ng/mL and were diluted 3-fold, with the diluent (1% BSA-PBS) as a control, and incubated for 2 h at 37° C. Goat anti-hIgG-HRP conjugated was added and incubated for 1 h at 37° C. The soluble one-component TMB substrate developing solution was added, and the developing was performed in dark at room temperature for 5-10 min. 2N H₂SO₄ 50 μL/well was added to terminate the color development reaction. The OD_{450 nm-650 nm} values were read on MD Spectra Max Plus 384 microplate reader, and SoftMax Pro v5.4 was used for data processing and diagraph analysis, with the results shown in FIG. 8, in which it can be seen that anti-hCD137 14#mAb new may bind to CD137 of rhesus monkey.

The target in test [6] is T4, hCD137-muFc. The experiment in a line: SPR, BIAcore X100; anti-hFc on a CM5 chip, CD137-muFc as analyte 100-3.16 nM; 1:1 Langmuir model. On the procedure: as §3, with “antibody” for “C2scFv and C14 scFv antibodies”, “CD137-muFc” for “C2 scFv or C14 scFv”, “nM (C14Mab) or 100-3.16 nM (C14 Mab new),” for “nM,”

B1: anti-hCD137 C2 scFv (scFv)
scFv: EVQLVESGGGLVQPGGSLRLSCAASGFTVSDYYMNWIRQAPGKGLEWVSYISSSASGSTIYYADSVKGRFTISRDNANNSLYLHMDSLRAEDTAIYFCARVVPAGSGWRWFDPWGQGTLVTVSSGGGGSGGGGSGGGGSQSVLIQPPSASGSPGQSVTISCTGISSDVGAYDYVSWYQQHPGKVPKLMIYEVSKRPSGVPDRFSGSKSGDTASLTVSGLQAEDEADYYCSSHAGSNNFYVFGTGTKLTVL
notes: The junction between scFv and Fc is not described; not shown: human IgG1-Fc domain, residues 104-330 of UniProt P01857
Take B1: the binding result in test [1], in test [2] and in test [3] was “no binding” each time. Further, the Kd in test [4] was 11.6 nM. In test [4], this molecule returned a koff of 0.000128 s⁻¹. In test [4], this molecule yielded an on-rate (kon) of 11000 M⁻¹ s⁻¹.

B2: anti-CD137 14#mAb new (antibody, V domains shown)
VH: QVQLQQSGPGLVKPSQTLSLTCAISGDSVSSNSAAWNWIRQSPSRGLEWLGRTYYRSKWYNDYAPSVESRITINPDTSKNQFSLQLSSVTPEDTAVYYCARDPPYVLSTFDIWGQGTMVTVSS
VL: NFMLTQPPSVSESPGKTVTISCTRSSGNIASFYVQWFQQRPGSSPTTVIYDDDQRPSGVPDRFSGSIDRSSNSASLTISGLTTDDEADYYCQSYDINKVIFGGGTKLTVL
notes: L50 E to D, L93 T to I and L95 N to K against C14; IgG4 / lambda; also called C14 mAbnew; C14 Mab new; not shown: human IgG4 constant region, UniProt P01861 (same method as C14mAb); human lambda light chain constant region, UniProt A0M8Q6 (same method as C14mAb)
As to B2, the binding result in test [5] is listed as “binds”. In test [6], this molecule showed a dissociation constant Kd of 2.68 nM, a dissociation rate constant (koff) of 0.000907 s⁻¹ and a kon of 338000 M⁻¹ s⁻¹.

B3: anti-hCD137 C14 mAb (antibody, human IgG4, V domains shown)
VH: QVQLQQSGPGLVKPSQTLSLTCAISGDSVSSNSAAWNWIRQSPSRGLEWLGRTYYRSKWYNDYAPSVESRITINPDTSKNQFSLQLSSVTPEDTAVYYCARDPPYVLSTFDIWGQGTMVTVSS
VL: NFMLTQPPSVSESPGKTVTISCTRSSGNIASFYVQWFQQRPGSSPTTVIYEDDQRPSGVPDRFSGSIDRSSNSASLTISGLTTDDEADYYCQSYDTNNVIFGGGTKLTVL
notes: domain: constant region; Human IgG4 / lambda antibody made in HEK293; also called anti-CD137 14#mAb; not shown: human immunoglobulin lambda light chain constant region, UniProt A0M8Q6
Take B3: the binding result in test [1], in test [2] and in test [3] was “no binding” throughout.

B4: anti-hCD137 C14 scFv (scFv)
scFv: QVQLQQSGPGLVKPSQTLSLTCAISGDSVSSNSAAWNWIRQSPSRGLEWLGRTYYRSKWYNDYAPSVESRITINPDTSKNQFSLQLSSVTPEDTAVYYCARDPPYVLSTFDIWGQGTMVTVSSGGGGSGGGGSGGGGSNFMLTQPPSVSESPGKTVTISCTRSSGNIASFYVQWFQQRPGSSPTTVIYEDDQRPSGVPDRFSGSIDRSSNSASLTISGLTTDDEADYYCQSYDTNNVIFGGGTKLTVL
notes: The junction between scFv and Fc is not described; also called anti-CD137 14#ScFv; not shown: human IgG1-Fc domain, residues 104-330 of UniProt P01857
Turning to B4, the binding result in test [1], in test [2] and in test [3] was “no binding” in each case. This molecule gave a dissociation constant (Kd) in test [4] of 23.8 nM. In addition, the koff in test [4] turned out to be 0.000263 s⁻¹. In test [4], this molecule displayed a kon of 11200 M⁻¹ s⁻¹.
